Substrate in the data set: O=CCO
The experiment in a line: HPLC of erythrulose formed, Michaelis-Menten fit. The note with it: 50 mM Li-HPA (saturating co-substrate), 4-80 mM GA, 2.4 mM ThDP, 9 mM MgCl2, 50 mM Tris-HCl pH 7.0, 22 °C. In kind it is biochemical, Escherichia coli. An excerpt:
HPLC of erythrulose formed, Michaelis-Menten fit on Escherichia coli transketolase (TK); wild-type E. coli TK

Results on six proteins are retold here after PMC5286519, “Two strategies to engineer flexible loops for improved enzyme thermostability” (Scientific Reports, 2017).

B1: Escherichia coli transketolase (TK); wild-type E. coli TK (Escherichia coli K-12) (protein)
chain: MSSRKELANAIRALSMDAVQKAKSGHPGAPMGMADIAEVLWRDFLKHNPQNPSWADRDRFVLSNGHGSMLIYSLLHLTGYDLPMEELKNFRQLHSKTPGHPEVGYTAGVETTTGPLGQGIANAVGMAIAEKTLAAQFNRPGHDIVDHYTYAFMGDGCMMEGISHEVCSLAGTLKLGKLIAFYDDNGISIDGHVEGWFTDDTAMRFEAYGWHVIRDIDGHDAASIKRAVEEARAVTDKPSLLMCKTIIGFGSPNKAGTHDSHGAPLGDAEIALTREQLGWKYAPFEIPSEIYAQWDAKEAGQAKESAWNEKFAAYAKAYPQEAAEFTRRMKGEMPSDFDAKAKEFIAKLQANPAKIASRKASQNAIEAFGPLLPEFLGGSADLAPSNLTLWSGSKAINEDAAGNYIHYGVREFGMTAIANGISLHGGFLPYTSTFLMFVEYARNAVRMAALMKQRQVMVYTHDSIGLGEDGPTHQPVEQVASLRVTPNMSTWRPCDQVESAVAWKYGVERQDGPTALILSRQNLAQQERTEEQLANIARGGYVLKDCAGQPELIFIATGSEVELAVAAYEKLTAEGVKARVVSMPSTDAFDKQDAAYRESVLPKAVTARVAVEAGIADYWYKYVGLNGAIVGMTTFGESAPAELLFEEFGFTVDNVVAKAKELL
notes: full-length tktA product, N-terminal His6-tag (kept, no cleavage told), expressed in E. coli XL10-Gold from plasmid pQR791, Ni-NTA purified, dialysed into ThDP and MgCl2 (holo form), homodimer
In the case of B1, the Km is on record as 20.5 (1.3) mM; the kcat (in general, the maximal rate divided by the concentration of active sites) was 62.3 s⁻¹; the kcat/Km – broadly, the second-order rate constant that governs catalysis at low substrate concentration – was 3040 M⁻¹ s⁻¹.

B2: Escherichia coli transketolase (TK); wild-type E. coli TK (Escherichia coli K-12; A282P) (protein)
chain: MSSRKELANAIRALSMDAVQKAKSGHPGAPMGMADIAEVLWRDFLKHNPQNPSWADRDRFVLSNGHGSMLIYSLLHLTGYDLPMEELKNFRQLHSKTPGHPEVGYTAGVETTTGPLGQGIANAVGMAIAEKTLAAQFNRPGHDIVDHYTYAFMGDGCMMEGISHEVCSLAGTLKLGKLIAFYDDNGISIDGHVEGWFTDDTAMRFEAYGWHVIRDIDGHDAASIKRAVEEARAVTDKPSLLMCKTIIGFGSPNKAGTHDSHGAPLGDAEIALTREQLGWKYPPFEIPSEIYAQWDAKEAGQAKESAWNEKFAAYAKAYPQEAAEFTRRMKGEMPSDFDAKAKEFIAKLQANPAKIASRKASQNAIEAFGPLLPEFLGGSADLAPSNLTLWSGSKAINEDAAGNYIHYGVREFGMTAIANGISLHGGFLPYTSTFLMFVEYARNAVRMAALMKQRQVMVYTHDSIGLGEDGPTHQPVEQVASLRVTPNMSTWRPCDQVESAVAWKYGVERQDGPTALILSRQNLAQQERTEEQLANIARGGYVLKDCAGQPELIFIATGSEVELAVAAYEKLTAEGVKARVVSMPSTDAFDKQDAAYRESVLPKAVTARVAVEAGIADYWYKYVGLNGAIVGMTTFGESAPAELLFEEFGFTVDNVVAKAKELL
notes: as for B1
Take B2: the Km is given as 17.6 (2.1) mM, the kcat was 45.5 s⁻¹ and the kcat/Km is 2580 M⁻¹ s⁻¹.

B3: Escherichia coli transketolase (TK); wild-type E. coli TK (Escherichia coli K-12; A282P/H192P) (protein)
chain: MSSRKELANAIRALSMDAVQKAKSGHPGAPMGMADIAEVLWRDFLKHNPQNPSWADRDRFVLSNGHGSMLIYSLLHLTGYDLPMEELKNFRQLHSKTPGHPEVGYTAGVETTTGPLGQGIANAVGMAIAEKTLAAQFNRPGHDIVDHYTYAFMGDGCMMEGISHEVCSLAGTLKLGKLIAFYDDNGISIDGPVEGWFTDDTAMRFEAYGWHVIRDIDGHDAASIKRAVEEARAVTDKPSLLMCKTIIGFGSPNKAGTHDSHGAPLGDAEIALTREQLGWKYPPFEIPSEIYAQWDAKEAGQAKESAWNEKFAAYAKAYPQEAAEFTRRMKGEMPSDFDAKAKEFIAKLQANPAKIASRKASQNAIEAFGPLLPEFLGGSADLAPSNLTLWSGSKAINEDAAGNYIHYGVREFGMTAIANGISLHGGFLPYTSTFLMFVEYARNAVRMAALMKQRQVMVYTHDSIGLGEDGPTHQPVEQVASLRVTPNMSTWRPCDQVESAVAWKYGVERQDGPTALILSRQNLAQQERTEEQLANIARGGYVLKDCAGQPELIFIATGSEVELAVAAYEKLTAEGVKARVVSMPSTDAFDKQDAAYRESVLPKAVTARVAVEAGIADYWYKYVGLNGAIVGMTTFGESAPAELLFEEFGFTVDNVVAKAKELL
notes: as for B1
B3: the Km is reported as 23.3 (1.4) mM, the kcat was found to be 81.2 s⁻¹ and the kcat/Km is 3480 M⁻¹ s⁻¹.

B4: Escherichia coli transketolase (TK); wild-type E. coli TK (Escherichia coli K-12; D143K) (protein)
chain: MSSRKELANAIRALSMDAVQKAKSGHPGAPMGMADIAEVLWRDFLKHNPQNPSWADRDRFVLSNGHGSMLIYSLLHLTGYDLPMEELKNFRQLHSKTPGHPEVGYTAGVETTTGPLGQGIANAVGMAIAEKTLAAQFNRPGHKIVDHYTYAFMGDGCMMEGISHEVCSLAGTLKLGKLIAFYDDNGISIDGHVEGWFTDDTAMRFEAYGWHVIRDIDGHDAASIKRAVEEARAVTDKPSLLMCKTIIGFGSPNKAGTHDSHGAPLGDAEIALTREQLGWKYAPFEIPSEIYAQWDAKEAGQAKESAWNEKFAAYAKAYPQEAAEFTRRMKGEMPSDFDAKAKEFIAKLQANPAKIASRKASQNAIEAFGPLLPEFLGGSADLAPSNLTLWSGSKAINEDAAGNYIHYGVREFGMTAIANGISLHGGFLPYTSTFLMFVEYARNAVRMAALMKQRQVMVYTHDSIGLGEDGPTHQPVEQVASLRVTPNMSTWRPCDQVESAVAWKYGVERQDGPTALILSRQNLAQQERTEEQLANIARGGYVLKDCAGQPELIFIATGSEVELAVAAYEKLTAEGVKARVVSMPSTDAFDKQDAAYRESVLPKAVTARVAVEAGIADYWYKYVGLNGAIVGMTTFGESAPAELLFEEFGFTVDNVVAKAKELL
notes: as for B1
On to B4, for which the Km is recorded as 16.1 (1.2) mM, the kcat turned out to be 48.1 s⁻¹ and the kcat/Km is 2990 M⁻¹ s⁻¹.

B5: Escherichia coli transketolase (TK); wild-type E. coli TK (Escherichia coli K-12; I189H) (protein)
chain: MSSRKELANAIRALSMDAVQKAKSGHPGAPMGMADIAEVLWRDFLKHNPQNPSWADRDRFVLSNGHGSMLIYSLLHLTGYDLPMEELKNFRQLHSKTPGHPEVGYTAGVETTTGPLGQGIANAVGMAIAEKTLAAQFNRPGHDIVDHYTYAFMGDGCMMEGISHEVCSLAGTLKLGKLIAFYDDNGISHDGHVEGWFTDDTAMRFEAYGWHVIRDIDGHDAASIKRAVEEARAVTDKPSLLMCKTIIGFGSPNKAGTHDSHGAPLGDAEIALTREQLGWKYAPFEIPSEIYAQWDAKEAGQAKESAWNEKFAAYAKAYPQEAAEFTRRMKGEMPSDFDAKAKEFIAKLQANPAKIASRKASQNAIEAFGPLLPEFLGGSADLAPSNLTLWSGSKAINEDAAGNYIHYGVREFGMTAIANGISLHGGFLPYTSTFLMFVEYARNAVRMAALMKQRQVMVYTHDSIGLGEDGPTHQPVEQVASLRVTPNMSTWRPCDQVESAVAWKYGVERQDGPTALILSRQNLAQQERTEEQLANIARGGYVLKDCAGQPELIFIATGSEVELAVAAYEKLTAEGVKARVVSMPSTDAFDKQDAAYRESVLPKAVTARVAVEAGIADYWYKYVGLNGAIVGMTTFGESAPAELLFEEFGFTVDNVVAKAKELL
notes: as for B1
As for B5, the Km is listed as 18.0 (0.8) mM.

B6: Escherichia coli transketolase (TK); wild-type E. coli TK (Escherichia coli K-12; H192P) (protein)
chain: MSSRKELANAIRALSMDAVQKAKSGHPGAPMGMADIAEVLWRDFLKHNPQNPSWADRDRFVLSNGHGSMLIYSLLHLTGYDLPMEELKNFRQLHSKTPGHPEVGYTAGVETTTGPLGQGIANAVGMAIAEKTLAAQFNRPGHDIVDHYTYAFMGDGCMMEGISHEVCSLAGTLKLGKLIAFYDDNGISIDGPVEGWFTDDTAMRFEAYGWHVIRDIDGHDAASIKRAVEEARAVTDKPSLLMCKTIIGFGSPNKAGTHDSHGAPLGDAEIALTREQLGWKYAPFEIPSEIYAQWDAKEAGQAKESAWNEKFAAYAKAYPQEAAEFTRRMKGEMPSDFDAKAKEFIAKLQANPAKIASRKASQNAIEAFGPLLPEFLGGSADLAPSNLTLWSGSKAINEDAAGNYIHYGVREFGMTAIANGISLHGGFLPYTSTFLMFVEYARNAVRMAALMKQRQVMVYTHDSIGLGEDGPTHQPVEQVASLRVTPNMSTWRPCDQVESAVAWKYGVERQDGPTALILSRQNLAQQERTEEQLANIARGGYVLKDCAGQPELIFIATGSEVELAVAAYEKLTAEGVKARVVSMPSTDAFDKQDAAYRESVLPKAVTARVAVEAGIADYWYKYVGLNGAIVGMTTFGESAPAELLFEEFGFTVDNVVAKAKELL
notes: as for B1
Regarding B6, the Km is recorded as 18.0 (1.2) mM, the kcat is 65.5 s⁻¹ and the kcat/Km stood at 3640 M⁻¹ s⁻¹.
